# Experimental data: patent publication US20250152663A1, “COMPOSITION FOR PREVENTION OR TREATMENT OF DRY EYE DISEASE COMPRISING HAPLN1” (HAPLNSCIENCE INC., priority 2021, published 2025)
# B1: hyaluronan and proteoglycan link protein 1 (HAPLN1) (protein, listed as Homo sapiens)
# chain: MKSLLLLVLISICWADHLSDNYTLDHDRAIHIQAENGPHLLVEAEQAKVFSHRGGNVTLPCKFYRDPTAFGSGIHKIRIKWTKLTSDYLKEVDVFVSMGYHKKTYGGYQGRVFLKGGSDSDASLVITDLTLEDYGRYKCEVIEGLEDDTVVVALDLQGVVFPYFPRLGRYNLNFHEAQQACLDQDAVIASFDQLYDAWRGGLDWCNAGWLSDGSVQYPITKPREPCGGQNTVPGVRNYGFWDKDKSRYDVFCFTSNFNGRFYYLIHPTKLTYDEAVQACLNDGAQIAKVGQIFAAWKILGYDRCDAGWLADGSVRYPISRPRRRCSPTEAAVRFVGFPDKKHKLYGVYCFRAYN
# What was measured:
# corneal epithelial cells = test: Detached corneal epithelial cells (H & E staining), rabbit dry eye model; format: in vivo, New Zealand white rabbits
# Description: Eyes of the rabbits including conjunctiva were enucleated, fixed with a specific fixing solution to be embedded into paraffin, and microsectioned, followed by staining and analysis according to the purpose. In this regard, the eyeballs were stained by hematoxylin & eosin (H & E) staining and detachment of corneal epithelial tissue was analyzed. After PAS staining, distribution of goblet cells in the conjunctiva was measured. In addition, after conjunctiva epithelium indentation (impression cytology), PAS staining was performed and distribution of goblet cells was measured.
# After 15 days of eye examination, on the 1st day after 16 days of drug treatment, eyes were enucleated, subjected to histopathological analysis, and paraffin blocked. Tissue was stained in a section slide by H & E staining (FIG. 16A). The number of corneal epithelial cells detached in a range of 200 μm^2 was measured and quantified (FIG. 16B).
# IL-1β in lacrimal glands = test: IL-1β immunohistochemistry in lacrimal gland, mouse dry eye model; format: in vivo, C57BL/6; conditions: 5 μg/ml or more of HAPLN1, after 16 days of drug treatment
# Description: In this example, expression of IL-1B in lacrimal glands was identified by immunohistochemistry in order to identify an in vivo anti-inflammatory effect of the HAPLN1 protein-containing composition of the present disclosure. To this end, on the 2nd day after 16 days of drug treatment, eyes were enucleated and paraffin blocked. IHC was performed by using a prepared slide, and expression (brown) of IL-1β was identified by using an Anti-IL1β antibody (FIG. 11A). FIG. 11B is a graph illustrating quantified expression levels of IL-1β obtained in FIG. 11A.
# CD45 in lacrimal glands = test: CD45 immunofluorescence in lacrimal gland, mouse dry eye model; format: in vivo, C57BL/6; conditions: after 16 days of drug treatment
# Description: In this example, expression of CD45 was identified in lacrimal glands in order to identify in vivo anti-inflammatory effect of the HAPLN1 protein-containing composition of the present disclosure. That is, on the 2nd day after 16 days of drug treatment, eyes were enucleated and paraffin blocked. IHC-IF was performed on a section slide, and expression (green) of CD45 was identified by using an Anti-CD45 antibody. FIG. 12B is a graph illustrating quantified expression levels of FIG. 12A.
# [1] = system: MUC4 mRNA in human corneal epithelial cells; test: RT-qPCR of mucin mRNA (MUC4) under high osmotic pressure; format: cell-based; conditions: HCEC, 450 mOsM, 10 to 200 ng/ml, particularly 50 to 200 ng/ml, 24 hours; compared to the untreated group
# Description: (§1) First, the human corneal epithelial cells (HCECs, 5th passage) were seeded onto 6 wells at a density of […]. After 24 hours, the HCECs were pre-treated with a medium with different osmotic pressures (314 and 450 mOsM). After 48 hours of incubation, the cells were treated with the composition of the present disclosure having different concentrations of rhHAPLN1 (0, 5, 10, 20, 50, 100, and 200 ng/ml) and Cyclosporine A (0.1 μM), as a control drug, for 24 hours. Then, the cells were washed and sampled to perform RT-qPCR (FIG. 5A).
# (§2) Total mRNA was purified from the HCECs by using a Qiagen kit. A cDNA was synthesized by using the iScript cDNA synthesis kit. Subsequently, RT-qPCR was performed and result data was expressed as relative expression levels (fold) (FIGS. 5B to 5C).
# [2] = system: MUC16 mRNA in human corneal epithelial cells; test: RT-qPCR of mucin mRNA (MUC16) under high osmotic pressure; format: cell-based; conditions: HCEC, 450 mOsM, 20 to 200 ng/ml, particularly 50 to 200 ng/ml, 24 hours; compared to the untreated group
# Description: as §1, §2
# [3] = system: goblet cells present in the conjunctiva; test: Goblet cells in conjunctiva (PAS staining), mouse dry eye model; format: in vivo, C57BL/6; conditions: 16th day
# Description: On the 16th days from drug treatment, eyes were enucleated and paraffin blocked, and tissue was stained by PAS staining on a prepared slide (FIG. 10A). PAS staining specifically stains goblet cells. Because there are many mucopolysaccharides and mucoproteins in the goblet cells, […] thereof is oxidized by a periodic acid to form an aldehyde, which reacts with a Schiff reagent to be stained in red-purple.
# In this regard, the number of goblet cells present in the conjunctiva was measured and quantified (FIG. 10B). As a result, in the dry eye disease model, the number of damaged goblet cells decreased.
# rabbit dry eye model = test: Corneal fluorescein score, 0.1% benzalkonium chloride-induced dry eye disease model; format: in vivo, New Zealand white rabbits
# Description: Corneal fluorescein score assay and tear volume assay were respectively performed on eyeballs of rabbits treated with the compositions of Preparation Examples 1, 2, and 3 prepared in Example 7 above by using a 0.1% benzalkonium chloride (BAC)-induced dry eye disease (DED) model.
# One drop (0.05 ml) of 0.1% benzalkonium chloride (BAC) was administered to both eyes of rabbits twice a day (9:00 and 17:00) for 14 days, and then induction of dry eye was identified by examination of eyes, and the rabbits were classified into groups.
# The test substance was dropped into the groups of the rabbit model twice a day (8:30 and 16:30) (Day 15 to 30 (total of 16 days)).
# Anesthesia was induced by intramuscular injection of Xylazine and Ketamine, and then one drop of Alcaine Eye Drop was administered and tear and the eye drop remaining therein were removed by using Weck-cel cellulose spear. After putting STT paper on the lower eyelid, a length of a wet region for 5 minutes was measured (STT-2). In addition, stability of the tear film was tested by measuring tear film break up time (TFBUT, measurement of time taken for the tear film to break down). Furthermore, conditions of the cornea and fluorescent staining were identified by a slit test.
molecule,measurement,setting,value
B1,number of detached corneal epithelial cells,"corneal epithelial cells; after 16 days of drug treatment, concentration dependent",decreased
same,degree of detachment of corneal epithelial cells,corneal epithelial cells; high concentration (50 μg/ml),lowest
same,expression of IL-1β in lacrimal gland,IL-1β in lacrimal glands,decreased to a level similar to that of Sham control
same,expression level of CD45 compared with Cyclosporine A,CD45 in lacrimal glands,reduced the expression level of CD45 more than Cyclosporine A
same,expression of CD45 in lacrimal glands,CD45 in lacrimal glands,decreased
same,expression level of MUC4 (FIG. 5B),[1],significantly increased
same,expression level of MUC16 (FIG. 5C),[2],significantly increased
same,number of goblet cells compared with normal Sham control,[3],equivalent to that of the normal Sham control
same,number of goblet cells compared to the dry eye model,[3]; regardless of the concentration,significantly increased
same,reduction of CFS level compared with Restasis,rabbit dry eye model; after 10 days,more than by Restasis
same,CFS level,"rabbit dry eye model; eye drop 0.5, 5, 50 μg/ml b.i.d., regardless of the concentration",consistently decreased
